# From the supplement of paper PMC10567573
# B1: LRRC45 (parent)
# chain: DLSAANEKNLLLQNQVDELERKFR
# Variants of: B1
# Assay: protein stability index of a GFP-peptide fusion (GPS, HEK-293T) (PSI 1-6); higher = more stable
# Details: c terminus: a fixed tail appended
# 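Also: lentivirally expressed fusions sorted by FACS into six bins by GFP to DsRed ratio, PSI derived from sequencing read proportions per bin multiplied by bin number.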
row,Variant,protein stability index
1,DLSAANEKNMLLQNQVDELERKFR,4.09
2,QLSAANEKNLLLQNQVDELERKFR,4.21
3,DLSAANEKNLLLQNQVDELERFFR,3
4,DLSAANEKNLLLQNQVDMLERKFR,3.23
5,DLSAANETNLLLQNQVDELERKFR,4.31
6,DLSCANEKNLLLQNQVDELERKFR,3.85
7,DLSAANEANLLLQNQVDELERKFR,4.62
8,DLSAANEKNLLLQNQVDELERPFR,3.88
9,DLSAANEKNLLLQNQVDELERHFR,3.86
10,DLFAANEKNLLLQNQVDELERKFR,3.49
11,DLSAANEKWLLLQNQVDELERKFR,3.79
12,DLSAANEKNLLLQNQVDELETKFR,4
13,DLSAANEKNLLLQNQVDELERKFD,4.86
14,DLSAANEPNLLLQNQVDELERKFR,4.35
15,DDSAANEKNLLLQNQVDELERKFR,5.31
16,DLSAANEKNLLLQNQVDKLERKFR,3.94
17,DMSAANEKNLLLQNQVDELERKFR,4.19
18,DLSAANEKNLLLQNQKDELERKFR,4.42
19,DLSAKNEKNLLLQNQVDELERKFR,4.33
20,DLSAAFEKNLLLQNQVDELERKFR,3.62
21,DKSAANEKNLLLQNQVDELERKFR,5.06
22,DLSAANEKNLLLQNQVDELWRKFR,2.91
23,DLSAAMEKNLLLQNQVDELERKFR,3.97
24,DLSAANEKNLLLQNQVDENERKFR,4.27

row,Variant,protein stability index
1,RLSAANEKNLLLQNQVDELERKFR,4.41
2,DLSAANEKNLLLQNPVDELERKFR,3.71
3,DLSAANEKNLLLQRQVDELERKFR,3.76
4,DLSAANEKNLLLQNQHDELERKFR,4.08
5,DLSNANEKNLLLQNQVDELERKFR,3.29
6,DQSAANEKNLLLQNQVDELERKFR,4.69
7,DLSAANEKNLLPQNQVDELERKFR,4.18
8,DTSAANEKNLLLQNQVDELERKFR,4.92
9,DLMAANEKNLLLQNQVDELERKFR,4.11
10,DLSAANEKNLLLQNQVDELERKFT,4.14
11,DLYAANEKNLLLQNQVDELERKFR,3.58
12,DWSAANEKNLLLQNQVDELERKFR,4.27
13,DLSAANKKNLLLQNQVDELERKFR,3.7
14,DLSAANEKCLLLQNQVDELERKFR,4.23
15,DLSAANEKNLLLKNQVDELERKFR,4.32
16,DGSAANEKNLLLQNQVDELERKFR,4.78
17,DLSAANEKNLLLQWQVDELERKFR,3.63
18,DLSAANEKNLLLQNQVDELERNFR,4.18
19,DLSAANDKNLLLQNQVDELERKFR,4.73
20,DLTAANEKNLLLQNQVDELERKFR,3.62
21,DLSAANEKNCLLQNQVDELERKFR,4.07
22,DLSAANEKPLLLQNQVDELERKFR,4.3
23,DLSAANEKNLDLQNQVDELERKFR,4.94
24,DLSAANGKNLLLQNQVDELERKFR,3.43

row,Variant,protein stability index
1,DLSAANERNLLLQNQVDELERKFR,4.15
2,DLSAANEKNLLLQNQVDEDERKFR,5.16
3,DLSAANEKNLLLQNQVDELTRKFR,3.43
4,DLSAANEKNLLLQNQVDELEHKFR,4.22
5,DLSAANEKNLLLRNQVDELERKFR,3.74
6,DLSAANEKNLLLQNQVDELERLFR,3.49
7,DLSAANEKALLLQNQVDELERKFR,4.77
8,DLSAANEKNLLEQNQVDELERKFR,4.61
9,DLSAANEKNLLIQNQVDELERKFR,4.25
10,DLSAANEKNLWLQNQVDELERKFR,3.89
11,DLSAANEKNLLLQNQVDELKRKFR,3.2
12,DLSAANEKNLLLQNQVDELFRKFR,2.54
13,DLSAANEKNLLLQNQVDELIRKFR,3.47
14,DLSAANEKNLLLQNQQDELERKFR,4.29
15,DASAANEKNLLLQNQVDELERKFR,5.21
16,DLSAANEKNLLLQNQVDELERWFR,3.14
17,DLSAANEKNLLLDNQVDELERKFR,4.63
18,DLSAANEKNLLLQNQVDELGRKFR,3.22
19,DLSAANEINLLLQNQVDELERKFR,3.43
20,DLSAANEKNQLLQNQVDELERKFR,4.51
21,DLSAANEKNLLLQNQVDEEERKFR,4.57
22,DLSAANEKNNLLQNQVDELERKFR,4.17
23,DYSAANEKNLLLQNQVDELERKFR,4.85
24,DLSAANEKNLLLQNQVDQLERKFR,3.56

row,Variant,protein stability index
1,DLSAANEKNLLLQNQVDELERKSR,4.36
2,FLSAANEKNLLLQNQVDELERKFR,4.09
3,WLSAANEKNLLLQNQVDELERKFR,3.75
4,DLSAANEKVLLLQNQVDELERKFR,4.12
5,KLSAANEKNLLLQNQVDELERKFR,4.19
6,DLSAANEKGLLLQNQVDELERKFR,3.93
7,DLSAANENNLLLQNQVDELERKFR,4
8,DLSAANEKNLLLQNQVDDLERKFR,5.06
9,DLSAANEKNFLLQNQVDELERKFR,3.94
10,MLSAANEKNLLLQNQVDELERKFR,4.23
11,DLSAANEKNLLLQFQVDELERKFR,3.02
12,DLSAANEKNLLLQNQVDETERKFR,4.34
13,DLSVANEKNLLLQNQVDELERKFR,3.77
14,DLSAANEVNLLLQNQVDELERKFR,3.85
15,DLSAANEKNLLLQNQVDELERKGR,4.6
16,DLSAANEKNLLLQNQVDELEFKFR,3.57
17,DLSAANEKNLLLQNQVDELERRFR,3.22
18,DLSASNEKNLLLQNQVDELERKFR,4.39
19,DLLAANEKNLLLQNQVDELERKFR,3.51
20,DLSAANEKNLLLQNQVDELERKFE,4.71
21,DLSAANEKNLLLQNQIDELERKFR,4
22,DLSAANEKNLLCQNQVDELERKFR,4.31
23,DLSAANEKNLLLQNQVDELEQKFR,4.09
24,DLSAANEKNLLLQNQVDELEREFR,4.26

row,Variant,protein stability index
1,DLSYANEKNLLLQNQVDELERKFR,3.91
2,DISAANEKNLLLQNQVDELERKFR,3.27
3,DLSAANEKNLLLQNQTDELERKFR,3.66
4,DLSAAYEKNLLLQNQVDELERKFR,3.77
5,DLSDANEKNLLLQNQVDELERKFR,4.67
6,DLSAANEKNLLLQNQVDEKERKFR,3.92
7,DLSAANEKNLLLQNQVDNLERKFR,3.56
8,DLSAANEKNLLLQNQVDELEYKFR,4.14
9,CLSAANEKNLLLQNQVDELERKFR,3.73
10,DLSAANEKNLLLQNQVVELERKFR,3.4
11,DLSAANEKNLLLQNQVDEMERKFR,4.03
12,DLSAANEKNLLLQNQVDELERKIR,3.6
13,DLSAANEKNLLLQNQVDELDRKFR,4.25
14,DLSAANEKFLLLQNQVDELERKFR,3.98
15,DLSAANEKNLLAQNQVDELERKFR,4.37
16,DLSAANEKNLLLQNQVDVLERKFR,3.44
17,DLSAANEKNLLLQNAVDELERKFR,3.57
18,DLSAQNEKNLLLQNQVDELERKFR,3.9
19,DLSAAREKNLLLQNQVDELERKFR,4.61
20,DLSAANEKNLLLQNQVDELERQFR,4.06
21,DLSAANEKNLLLQNQVDEIERKFR,4.24
22,DLSAANEKNLLLQLQVDELERKFR,3.43
23,DLSTANEKNLLLQNQVDELERKFR,4.06
24,DLSAANEKNLLLQNQADELERKFR,4.48

row,Variant,protein stability index
1,DLSAANEKNLLLGNQVDELERKFR,4.11
2,DLSAANCKNLLLQNQVDELERKFR,3.78
3,GLSAANEKNLLLQNQVDELERKFR,4.55
4,DLSAAQEKNLLLQNQVDELERKFR,4.73
5,DLSAANEKNALLQNQVDELERKFR,4.18
6,DLSALNEKNLLLQNQVDELERKFR,3.83
7,DLSAANEKNLLSQNQVDELERKFR,4.03
8,DLSAANEKNLLLQNQVDELERGFR,3.62
9,DLSAANEKNLLLQQQVDELERKFR,4.49
10,DLSAANEKNLRLQNQVDELERKFR,4.04
11,DLSAANEKNLLLQNQVDELERKVR,3.91
12,DLSAANEKNLLLQNQVDELERKFI,3.85
13,DLSHANEKNLLLQNQVDELERKFR,4.01
14,ILSAANEKNLLLQNQVDELERKFR,3.93
15,DLSWANEKNLLLQNQVDELERKFR,3.78
16,DLSAANEKNLLLQNQVDELVRKFR,3.75
17,DLSAANEKNLLLQNQVDECERKFR,4.16
18,DLSAANEKNLLLQNQVDELERKRR,3.86
19,DLSAANEKNLLLQNQSDELERKFR,4.32
20,DLSAACEKNLLLQNQVDELERKFR,4.59
21,DLSAANEKNLLQQNQVDELERKFR,4.19
22,DLSAANEKNLLLQNQVDELERKFL,3.78
23,DLSAANEKNLLLQNQVDELEWKFR,3.63
24,DLSAANEKNLLLQNQVDELERDFR,4.31

row,Variant,protein stability index
1,DLSAANEKQLLLQNQVDELERKFR,4.57
2,DLSAANEKNLLLHNQVDELERKFR,3.66
3,DLDAANEKNLLLQNQVDELERKFR,4.64
4,SLSAANEKNLLLQNQVDELERKFR,4.25
5,DLSAANEKNLLLQNQVDELEEKFR,4.56
6,DLSAANEKNLLLQNQVDCLERKFR,3.4
7,DLSAANEKNLLLQNQVDELMRKFR,2.81
8,DLSAANIKNLLLQNQVDELERKFR,3.2
9,DLSAANEKNLLLQNVVDELERKFR,3.48
10,DLSAANEKNLLLQNQVDELESKFR,4.23
11,ELSAANEKNLLLQNQVDELERKFR,3.61
12,DLSAANEKNLLLQNWVDELERKFR,3.27
13,DLIAANEKNLLLQNQVDELERKFR,3.51
14,DLSAANEKNLLLQNQVGELERKFR,3.46
15,DLSAANEKNLLLQNQVDELERCFR,3.47
16,DLSAANEKNLLLQNSVDELERKFR,4.42
17,DLSAANEKNLPLQNQVDELERKFR,4.32
18,DLSAANEKNLLLYNQVDELERKFR,3.42
19,DLSAANEGNLLLQNQVDELERKFR,4.17
20,DLSAANEKNLLLQNQDDELERKFR,4.12
21,DLSAANEKNLILQNQVDELERKFR,4.46
22,DLSAFNEKNLLLQNQVDELERKFR,3.79
23,DLSAANEKNLKLQNQVDELERKFR,4.57
24,DLSAANEKNLLLQNQVMELERKFR,3.58

row,Variant,protein stability index
1,DLSAANEKNLLLQNNVDELERKFR,3.75
2,DLSAPNEKNLLLQNQVDELERKFR,4
3,DLSAANEKNLLLQNQVDFLERKFR,3.16
4,DLSAANEKELLLQNQVDELERKFR,4.89
5,DLSAANSKNLLLQNQVDELERKFR,3.74
6,DLSIANEKNLLLQNQVDELERKFR,3.81
7,DLEAANEKNLLLQNQVDELERKFR,4.86
8,DLSAANEKNLLLQGQVDELERKFR,4.11
9,DLSAANEKNLLLQNGVDELERKFR,4.36
10,DLSAANEKNLLTQNQVDELERKFR,3.64
11,DLSAANEKNLLLQNKVDELERKFR,4.06
12,DLSAANEKRLLLQNQVDELERKFR,4.02
13,DLSGANEKNLLLQNQVDELERKFR,3.77
14,DLSAANEKNLLLQNQRDELERKFR,4.17
15,DLSAANEKNLLLQNQVDELERKLR,4.33
16,DLSAANEKNLLLFNQVDELERKFR,3.44
17,DLSAANEKNLLFQNQVDELERKFR,4.09
18,DLSAAWEKNLLLQNQVDELERKFR,3.37
19,YLSAANEKNLLLQNQVDELERKFR,4.19
20,DLSAVNEKNLLLQNQVDELERKFR,3.95
